Assay: soluble on expression in E. coli; label from the status in PepcDB or PDB records
For “MSLNPFGNALIPDMIADASIQEINGVFYCYATTDGYGQGLKTSGPPVVWKSKDFVHWSFDGTYFPSAAKEKYWAPSKAIFANGKYYIYPTINGYMYPAVADKPEGPFKLARGKDEFYKPFTPSTLLQSKNPGGIDAEIFVDDDGQAYVFWGRRHVAKLNEDMITVDSVVQVISTPRKEYSEGPIFFKRKGIYYYLYTIGGDEKYQYAYVMSRVSPMGPFEAPEQDIISTTNYERGIFGPGHGCVFHPEGTDNYYFAYLEFGRRSTNRQTYVNQLKFNEDGTIRPVELTMDGVGALKKVKSDKKMKIDTVYASSIEVPLKIEPMKDPTCLRTEYFVPSFAVDGANGSRWMAAAEDSINPWIVADLGTVKKVRRSEIYFVRPTAGHAYVIEASMDGKVWQEFAVHQDRKMCSPHTDVLNKRFRYLRIKILKGVPGIWEWNIYEGHHHHHH”, the “soluble on expression in E. coli” value was “not soluble”. With “MSLNQKDPVTDDITGGWYEQDIRQLAARGIMQGEGNGKYFPERLVTRAEFATLITRALQLPSGNAKFTDLEQVHPSLRDGINRAASAGIIRGRGDNTFDPNTTITREEAVIMIDRSLKHAGIFAKQVELPFVDQNLIYAKQEVQRVYGFGIVKGNEFNQFVPKGPSQRAHAAAFINRMLSVIEAEGHHHHHH” the “soluble on expression in E. coli” value was “soluble”. For “MSLNQTDLSASSTSSTSRPLVAVTGADGFIGSHLTEDLVRAGYRVRAMAIYNSQGSYGWLDTVPGEVMEHVEVQLGDVRDAGSVRALMRDVQTVYHLAALIAIPYSYVAPRSYVETNITGTLNVLEAARDLGTGRVIHTSTSEVYGTARSVPIHESHPLQGQSPYSATKIGADKLAESYFLSFGLPVVTLRPFNTYGPRQSARAVIPTIISQLAAGRTEIKLGDLRPTRDFNYVADTARAFRAVGEAGPEVLGRTLNAGSGREISVGDTVKLIAQVMGKDVEVKQEDERLRPEGSEVMRLLADHRELQTLTGWQPQVTLEEGLKRTAEWFTDAGNLARYRVDQYTEGHHHHHH”, the “soluble on expression in E. coli” value was “soluble”. With “MSLNQTFDKENLESKNTQNLQKSKNPTSQLSKTILKEEFNFLPNDVEINWKGRVLVIGDIHGDLKSLITSLFLSGVINSNLDWIAKNTLLIQLGDVVDRGSHALQIYKLFNKLKSQAPSLGSKFVGLLGNHEVMNLCGQLHYVTDEDFQTYGGRDNRTFEWSKEGFVGKYLRTMKLAIRVNDSLYVHAGLLPKYAKLGLDKLDKLSNDLLEGDFCDFYSSLFFVEDGPLWTRDISLGEEEKACKLVDETLQILGLSRMVVGHTIQHDNRINIKCDNKLILADTGFSEAIYGKPCMLEILYHNDNPDPSNYKSFHPYSEGHHHHHH” the “soluble on expression in E. coli” value was “not soluble”. With “MSLNRFRKWLYKPKRSDPQLLARFYYADEELNQVAAELDSLDGRKDPQRCTLLVSQFRSCQDNVLNIINQIMDECIPQDRAPRDFCVKFPEEIRHDNLAGQLWFGAECLAAGSIIMNRELESMAMRPLAKELTRSLEDVRGALRDQALRDLNTYTEKMREALRHFDVLFAEFELSYVSAMVPVKSPREYYVQQEVIVLFCETVERALDFGYLTQDMIDDYEPALMFSIPRLAIVCGLVVYADGPLNLDRKVEDMSELFRPFHTLLRKIRDLLQTLTEEELHTLERNLCISQDVEFPIRADEGHHHHHH” the “soluble on expression in E. coli” value was “not soluble”. With “MSLNSKKETINIGCSLPLTGEGANYGRSVKEGVDLAIEEINQSEMFDLPLKVIYEDDKMDPREGVNAINKLITADNVPIIIGPFGSSITLAVAPIANKNKVVLLGASATADNIKDAGDYIFRITPPNSKQGNDVASFCFNSLNSKKAAIIYQTNDYGTTLKTAFESEYLKLGGEVLIVEGVDLGNKDFKTQILKIKSKQVDVVFFPLHVAESGNFLKQSKELGLNVKFISCDGAMVDDLLKLAGNAAEGTYYTSLALAYGMNDSLINSFNTNFKKKYNKEPDVYAAYYYEVTYILAHALKKANGNIGQIKEILYSINGENAYNGITGLTSFDTYGEVDKSFSIYVVSNNKFSLFKEGHHHHHH” the “soluble on expression in E. coli” value was “soluble”. For “MSLNSSFFKMMEKRSYNRFNQEQKAAITYDMKKHLRIIAGAGSGKTQTICAKAVYLMTQKQVDEERILMITFTRNAANELKKRVDNFSQRKTAVHIGTFHSIFFRIYNEICRKFPEVAMQGIQGDFSKDTAQKVNAVLQQLIRKYNLYIFDQYGEKTIASRLDYWQNMNLSVEEMVQLVKEKYDSIDKNARQPISERLYGLLTELQEQKRSQQLLEFNDVLQNLKSALENEEIQHYIGQKYDYLFIDEFQDTNPLQWEIVKRMTKENRIKLIVVGDDDQSIYGFRGSEPAYIKNFEKEYPTKTLFLLTNYRSRAAIVQGANRLISYNKNDRIPKAMIPAQKEAGVMEAYLFSDTKAESQWLIKQIQTFIQKNGKYKESIILYRSASQTQQLVQSLLKTNIPFVLEADSPYEGIFGIKSFQHFYQKIVHWQTALNLQKKNQAYQQLLRQLMADCYLKKSECDQYFSPKYQNIAVADYILSISPNLKSKSAEIREFEEALRKTDQHQEIYSLVQSYLHLPRIAKEIDQSDQEWIREEVKQHATFRRLQALSQETQATAKELKTRLIAYRQGKLDALCIQSIHKSKGLSYRNVFLIGCNEGSLPYNGATEKKVIDFNEIKAEPVTTIEEERRLFYVAMTRARNRLYLCVPQMKNSRKLKVSRFIKETGSRVKKGEGHHHHHH”, the “soluble on expression in E. coli” value was “soluble”. In the case of “MSLNSTQMNKQVIDKYTQRHELYLEQLLNEIIIPAPQIRSALHYALFSGGKRIRPILVYLAGDLIDVDQGVLDIIAAALELTHCYSLIHDDLPAMDNDDLRRGKPSCHKAFDEATAILVGDGMQALAIEVLLMRLSPLLPAAQVVAITQVLVNASGISGMVSGQSLDLSELAKSSVTEEQLREIHLLKTGKLILACFEMVLAAQHEVSEQIKSALRTYGKHIGLVFQMQDDYLDLYAPTQILGKGRSSDQANQKTTFATLFNKQQLEEEIAVHYQIAMDSLRLFGSKAAALIELTKQLQNRSNLSEGHHHHHH”, the “soluble on expression in E. coli” value is reported as “soluble”. In the case of “MSLNTFWKSFPDVERSLTETCELIEQTLHTRNEDIEEALVTLARSGGKLLRPAFFFLFAQLGDEEKQEKQQLLKIAASLEILHMATLIHDDIIDDSPLRRGAVTIQSQYGKDVAVYTGDLLFTEFFTLIADAMNGSEFMKINAQGMKRLLLGELDQMSHRFDRRMSIPAYLRSVNGKTAELFSLSCLEGAYFGHSSKEVQRLAKRIGRHIGIAFQVYDDILDYTADTETLKKPALEDLSQGVYTLPLLFAYQAAPDVFSPYLDKGRAITLEEAAEVAALVNDYHGVTEAQAFAKKVTNKAITDIQQLPDGTAKETLLSLTELLLHRSFEGHHHHHH”, the “soluble on expression in E. coli” value is reported as “soluble”. For “MSLNTLNQDIAFKIFTMFYKVCYGKKKHTYTSFFEKFQICTYNDILLLCDEVAKLFKMENSLENVTLPCKVFGDVHGNLFDLLDFFNLYNWPMHNNKVFLGNLINRGNYSLEVICLLFSLKILFPKHIYLLRGNHEDRLFNYIYGFYKDIEIKMKTNMEYMGIINYQEQVISAHSYELFNRINDVFEFFPLCVLLDKNILCIHGGIGDSVMTISDYQHIRKPILIPQNVDRYSNNKSEHVKKIIIDTLWSDPINYNDELDLQLLKNSSTYDIIPSRRGNITFKFGKHRLNDFLKNNQLKLIIRGHECVQEGYKYSYKRKLLTLFSAKNYCNKYNNNASNAFIVRKNKNIIIFNQILKYQHNCEGHHHHHH”, the “soluble on expression in E. coli” value was “not soluble”. For “MSLNTPVEFNLPDSIELEREEVEEDLLTSGDEILLSYSSYIPPKLHSMTSHLQLRVDFFVNLLQFTRANFIYKVSPQVKLKLLESYEILNCSLSLSSYLSSDTDLTTQWHRVLLSEEVTEEELMLHQLKRFPELFGKFLAEIDEPLRSSSDIKFKVAAADLVNCVIYHSCLERGESEYRCNQLNLDLTEVGDDLPWFINFSIPDSLNKILLHLFYSFEDGNVPDEYHDKLLEIIKSLYYMCKQSDVWYAVKGSNAYEAGYQGFNLNSTLSNHLTWIQILLKIGRSVDALNIADFYHDLSGLVETLSSFDYEKAHPLYEEYFTKYGYQFSKTLFTTVIEQGKINDLFSRFPSHHDDLVRFFDEYPQYGHVSWIGNIFDQQYNAAAEVLVSVSSPDAAKKLDLNQLQVRLSIAKLSALAEEPILNMDLLNTIQSGLDLIDSQKKAAELAGEHTSLSKRYLETESHYQSILEKLKTNIVLSEYELVGIYTVLDDVTAFAKALHFLSLIKTIPEDSRQFLVSMIWRKCILFNDWNHTSDDLSTALYATLLAFFKEEYYRAGIPLPHVPKLTAPISKDTLSEQLFAGVECGNLLLDGAEADTSALSAVQTDMESRIRFLIGSAHSEAGASCVVNYETNTVDEGHHHHHH”, the “soluble on expression in E. coli” value was “soluble”. With “MSLNVSHFFPETFVSLVKDMLTKTDGSTTKAIETLIGGKAEIEVFQQNNIDYDKLSPEEARLFQRDDDILFRTSSLKTGDDYLSYNYVYVKTNLLPPAIKQDLQEERLPIGKIIAELESRREIFSTGDCLGKHFTQLVPVSADRTYAFKKYQIISGRQCMFYVCELFDLEKICKLTAGEGHHHHHH” the “soluble on expression in E. coli” value was “not soluble”. With “MSLPDEQGRRTVTLETAEEALLKRAVVYDHDGDEHYHVASALIKSIRGSDPDAALYWLARMLYAGEDPRFIARRLVISAAEDIGLADPQALVIAQAAADAVSFIGMPEGRIPLAEAVVYLACAPKSNSAYLAIDRALAVVEREKTPPVPNHLKDTGYGSDQRLGYGKGYQYPHDFPGAWVEQRYLPEGVDGPFWEPKGYGREAELARLLRERRGREGHHHHHH” the “soluble on expression in E. coli” value was “soluble”. For “MSLPPCPQCASEYTYEDGGQYICPECAHEWNETESAADLAAQVRDANGAVLQNGDTVILIKDLKVKGSSMVIKQGTKVKGIRLQEGDHNIGCKIDGSAMNLKSEFVKKA”, the “soluble on expression in E. coli” value was “not soluble”. For “MSLPTNPFISLFGRSPIGPMQQHIAKAHECAAGLLPFFRAVIAEDWAQVEQVQQDMVRLEQEADRLKKHVRMHLPKSLFLPVPRSDLLELLSVQDKVANRAKDIAGLMLGRRMRIPLPLQGQMLAYVQRSVDASAQALRVVNELNELLETGFGGRETSLVESMVEELEAIENDTDRIQVEVRRELFRLESELPPVDVMFLYQIIEWIGDVADRAQRVGNRLEQLLAREGHHHHHH”, the “soluble on expression in E. coli” value was “soluble”. For “MSLQENPYQLVKDVEGIGFGKADELGSRMGLSGNHPERVKAAILYTLETTCLSEGHTYIETEQLIIDTQSLLNQSAREGQRITEMDAANAIIALGENKDIVIEDGRCYFPSLFYAEQNVAKRVKHIASQTEYENQFPESEFLLALGELEERMDVQYAPSQKEAIQKALSSPMLLLTGGPGTGKTTVIRGIVELYGELHGVSLDPSAYKKDEAFPIVLAAPTGRAAKRMSESTGLPAVTIHRLLGWNGAEGFTHTEDQPIEGKLLIIDEASMLDIWLANHLFKAIPDHIQIIIVGDEDQLPSVGPGQVLRDLLASQVIPTVRLTDIYRQAEGSSIVELAHQMKNGLLPNNLTAPTKDRSFIRCGGSQIKEVVEKVVANALKKGYTAKDIQVLAPMYRGKAGINELNVMLQDILNPPKEKRRELKFGDVVYRTGDKILQLVNQPENNVFNGDIGEITSIFYAKENTEKEDMAVVSFDGNEMTFTKKDFNQFTHAYCCSIHKSQGSEFPIVVLPVVKGYYRMLRRNLLYTAITRAKKFLILCGEEEALEWGVKNNDATVRQTSLKNRLSVQVEEGHHHHHH”, the “soluble on expression in E. coli” value was “soluble”. For “MSLQIEFREFNPFDCWIWVEFSTVPAPLEQQYLEELFDSWFFLGKLGGFNAENLQAQEEGLELSYMSYQSAQERSSLAALMHNMGEVEYQGRWARCWFDLGTSDAIALDVLLNALQRLSEEMVGLEQVFVGGENADWPSPGRRSLDFAADEGHHHHHH”, the “soluble on expression in E. coli” value was “soluble”. In the case of “MSLQNGKIKGLIFDCYKTLIDIRTDEGSWETNEKVSKWLLYQGVRIEPDRLREEYKWKVIGRLGNSGQKYPDIRIEEIFAEICAENAFREINPFWLGIEAAKVFRTSSLKKLEAYPQSLRLLDKYRNVPKCIVSNAQRVFTEQELHFLGLYDRFNFIIMSSDHRIKKPDTRLFKMALDGLKLEPWEVLSIGDTPENDIYAPQSLGINAMHIRDAWRCVEGHHHHHH”, the “soluble on expression in E. coli” value is reported as “soluble”.
